Assay results from patent publication US20050053985A1 (PTC THERAPEUTICS, published 2005).

B1: His-Flag-HsSen2 (other, not shown: small tags and cut ends)
chain: MAEAVFHAPKRKRRVYETYESPLPIPFGQDHGPLKEFKIFRAEMINNNVIVRNAEDIEQLYGKGYFGKGILSRSRPSFTISDPKLVAKWKDMKTNMPIITSKRYQHSVEWAAELMRRQGQDESTVRRILKDYTKPLEHPPVKRNEEAQVHDKLNSGMVSNMEGTAGGERPSVVNGDSGKSGGVGDPREPLGCLQEGSGCHPTTESFEKSVREDASPLPHVCCCKQDALILQRGLHHEDGSQHIGLLHPGDRGPDHEYVLVEEAECAMSEREAAPNEELVQRNRLICRRNPYRIFEYLQLSLEEAFFLVYALGCLSIYYEKEPLTIVKLWKAFTVVQPTFRTTYMAYHYFRSKGWVPKVGLKYGTDLLLYRKGPPFYHASYSVIIELVDDHFEGSLRRPLSWKSLAALSRVSVNVSKELMLCYLIKPSTMTDKEMESPECMKRIKVQEVILSRWVSSRERSDQDDL
notes: Bait expressed stably in 293 cells and purified with its partners over anti-Flag and Ni beads; also called His-Flag-Sen2; His-Flag-Sen2WT
B2: His-Flag-HsSen2deltaEx8 (other, not shown: small tags and cut ends)
chain: MAEAVFHAPKRKRRVYETYESPLPIPFGQDHGPLKEFKIFRAEMINNNVIVRNAEDIEQLYGKGYFGKGILSRSRPSFTISDPKLVAKWKDMKTNMPIITSKRYQHSVEWAAELMRRQGQDESTVRRILKDYTKPLEHPPVKRNEEAQVHDKLNSGMVSNMEGTAGGERPSVVNGDSGKSGGVGDPREPLGCLQEGSGCHPTTESFEKSVREDASPLPHVCCCKQDALILQRGLHHEDGSQHIGLLHPGDRGPDHEYVLVEEAECAMSEREAAPNEELVQRNRLICRRNPYRIFEYLQLSLEEEPLTIVKLWKAFTVVQPTFRTTYMAYHYFRSKGWVPKVGLKYGTDLLLYRKGPPFYHASYSVIIELVDDHFEGSLRRPLSWKSLAALSRVSVNVSKELMLCYLIKPSTMTDKEMESPECMKRIKVQEVILSRWVSSRERSDQDDL
notes: also called His-Flag-Sen2ΔEx8; His-Flag-Sen2deltaEx8
B3: His-Flag-HsSen34 (other, not shown: small tags and cut ends)
chain: MLVVEVANGRSLVWGAEAVQALRERLGVGGRTVGALPRGPRQNSRLGLPLLLMPEEARLLAEIGAVTLVSAPRPDSRHHSLALTSFKRQQEESFQEQSALAAEARETRRQELLEKITEGQAAKKQKLEQASGASSSQEAGSSQAAKEDETSDGQASGEQEEAGPSSSQAGPSNGVAPLPRSALLVQLATARPRPVKARPLDWRVQSKDWPHAGRPAHELRYSIYRDLWERGFFLSAAGKFGGDFLVYPGDPLRFHAHYIAQCWAPEDTIPLQDLVAAGRLGTSVRKTLLLCSPQPDGKVVYTSLQWASLQ
notes: Bait expressed stably in 293 cells; also called His-Flag-Sen34; His-Flag-34
B4: His-Flag-HsSen15 (other)
chain: MEERGDSEPTPGCSGLGPGGVRGFGDGGGAPSWAPEDAWMGTHPKYLEMMELDIGDATQVYVAFLVYLDLMESKSWHEVNCVGLPELQLICLVGTEIEGEGLQTVVPTPITASLSHNRIREILKASRKLQGDPDLPMSFTLAIVESDSTIVYYKLTDGFMLPDPQNISLRR
notes: Bait expressed stably in 293 cells; also called His-Flag-Sen15; tagged HsSen15; not shown: His and Flag tag from the His-Flag-pcDNA3.1/Hygro vector

target: SmB/B′ proteins (human, UniProt P14678 1-240); test: co-purification with the His-Flag-tagged bait from stable 293 cells (anti-Flag beads, then Ni beads); SDS-PAGE, Western blot with Y12 antibody (SmB/B′)
Method: Proteins co-purified with His-Flag-HsSen2, His-Flag-HsSen2deltaEx8, His-Flag-HsSen34, His-Flag-HsSen15 and His-Flag-HsClp1 were analyzed by SDS-PAGE followed by Western blotting with antibodies against Symplekin, CstF64. Y12 antibody that recognizes SmB/B′ proteins was used a negative control.
Complexes purified using the different epitope-tagged subunits of the endonuclease complexes were analyzed by Western blotting using antibodies specific for Symplekin and CstF64, components of the human pre-mRNA 3′-end processing complex. Y12 antibody (known to recognize pre-mRNA splicing snRNP […] proteins) was used as a negative control. […] Similar amounts of 3′-end complexes were purified from all His-Flag-tagged tRNA endonuclease subunits. Since the purification conditions were very stringent and utilized two affinity chromatography steps (see experimental procedures), the interaction between tRNA splicing endonuclease and pre-mRNA 3′-end processing factors is quite robust. Immunoprecipitation under standard salt conditions to more accurately determine the amount of 3′-end factors associated with the tRNA endonuclease was also performed. It was shown that as much as 1% of the 3′-end processing factors are associated with the tRNA endonuclease. […] Furthermore, His-Flag-HsSen2deltaEx8 and His-Flag-HsClp1 were able to associate with a larger proportion of the 3′-end formation complexes (FIG. 29, compare lane 8 and 11 to 7, 9, 10). [0764] 5.2.2.7 Depletion of SEN2 Causes Defects in tRNA Splicing and Pre-mRNA 3′ end Formation

Row | binding result | Binder
1 | no binding | B1
2 | no binding | B2
3 | no binding | B3
4 | no binding | B4
